The assay deals with T1, mouse CD56 (mouse, UniProt P13595 20-711, limits assumed).
T1 construct: the construct is not described
In words: ELISA on coated mouse CD56 ectodomain, IgG titrated, OD405. How it is done:
Protein was coated on ELISA plate wells at 50 ng/well in PBS at 4° C. overnight. After blocking of unbound surface with 2% non-fat dried milk in PBST, serially diluted antibody solutions were added, and incubated for 2 hours at 37° C. The bound human antibodies were detected with goat anti-human Fc specific IgG conjugated with horseradish peroxidase.

We go through two molecules from US20180214568A1 (US Dept. of Health and Human Services, published 2018).

T1 sequence (P13595 20-711 limits assumed): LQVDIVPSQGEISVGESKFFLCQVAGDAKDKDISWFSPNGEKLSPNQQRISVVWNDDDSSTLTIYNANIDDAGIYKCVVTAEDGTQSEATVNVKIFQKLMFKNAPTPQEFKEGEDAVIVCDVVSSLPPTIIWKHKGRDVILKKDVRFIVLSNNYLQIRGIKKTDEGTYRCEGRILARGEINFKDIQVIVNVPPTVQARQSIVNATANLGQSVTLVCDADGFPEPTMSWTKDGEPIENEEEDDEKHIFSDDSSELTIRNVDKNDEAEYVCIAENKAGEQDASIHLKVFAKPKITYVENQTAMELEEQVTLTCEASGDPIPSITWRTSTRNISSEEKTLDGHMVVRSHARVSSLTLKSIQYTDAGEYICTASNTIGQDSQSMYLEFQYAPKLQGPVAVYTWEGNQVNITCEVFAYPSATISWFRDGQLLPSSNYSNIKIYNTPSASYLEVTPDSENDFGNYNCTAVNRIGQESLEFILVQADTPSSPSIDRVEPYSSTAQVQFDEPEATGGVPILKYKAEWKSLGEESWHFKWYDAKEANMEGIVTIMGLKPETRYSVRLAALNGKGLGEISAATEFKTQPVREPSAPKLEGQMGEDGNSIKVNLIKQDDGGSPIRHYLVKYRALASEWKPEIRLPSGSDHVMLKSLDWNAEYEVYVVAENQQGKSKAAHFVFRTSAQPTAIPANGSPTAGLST

B1: m906 IgG1 (antibody, V domains shown)
VH: EVQLVQSGAEVKKPGSSVKVSCKASGGTFTGYYMHWVRQAPGQGLEWMGWINPNSGGTNYAQKFQGRVTMTRDTSISTAYMELSRLRSDDTAVYYCARDLSSGYSGYFDYWGQGTLVTVSS
VL: DVVMTQSPLSLPVTPGEPASISCRSSQSLLHSNGYNFLDWYLQKPGQSPQLLIYLGSNRASGVPDRFSGSGSGTDFTLKISRVEADDVGVYYCMQSLQTPWTFGHGTKVEIKR
Turning to B1, the “EC50 (read off the curve)” value is ~0.08 nM.

B2: m900 IgG1 (antibody, V domains shown)
VH: not shown
VL: EIVLTQSPATLSLSPGERATLSCRASQSVSSYLAWYQQKPGQAPRLLIYDASNRATGIPARFSGSGSGTDFTLTISSVQAEDVGVYYCQQYHGTPTFGQGTKVEIKR
Take B2: the binding result was “no binding (tested: 1000 nM)”.
